Experimental data taken from patent US20140087995A1 (published 2014).
Numbered stars: 1 amine (or outer) side, 2 acyl side, 3 side chain; on linkers, the order of the positions; unused ones are H or OH. Bridge positions count the residues as written; N and C are the ends. Side chains are listed from the residue outwards. Ends that are not written are not given here. * marks the point of attachment. C20 diacid = O=C(O)CCCCCCCCCCCCCCCCCCC(=O)*; γGlu = O=C(O)[C@H](CCC(=O)[*:2])N[*:1]; AEEA = NCCOCCOCC(=O)O

T1: human calcitonin receptor (human, UniProt P30988 25-474)
T1 construct: whole, on cells; Used as cell membranes; also called hCTR; hCT
T1 sequence (looked up): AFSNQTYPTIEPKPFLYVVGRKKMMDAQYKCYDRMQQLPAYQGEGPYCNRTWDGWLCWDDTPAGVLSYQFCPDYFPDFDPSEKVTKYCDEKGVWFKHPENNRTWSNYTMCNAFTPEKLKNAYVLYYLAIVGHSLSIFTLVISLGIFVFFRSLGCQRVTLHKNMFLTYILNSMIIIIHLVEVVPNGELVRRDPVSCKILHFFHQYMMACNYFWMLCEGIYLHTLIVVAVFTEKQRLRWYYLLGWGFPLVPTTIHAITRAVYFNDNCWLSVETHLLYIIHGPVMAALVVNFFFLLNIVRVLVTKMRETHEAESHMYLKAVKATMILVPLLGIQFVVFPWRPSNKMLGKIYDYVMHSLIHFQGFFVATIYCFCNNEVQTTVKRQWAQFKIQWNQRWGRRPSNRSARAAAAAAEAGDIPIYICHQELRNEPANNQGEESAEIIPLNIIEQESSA

B1: N^ε1-[2-[2-[2-[[(4S)-4-carboxy-4-(19-carboxynonadecanoylamino)butanoyl]amino]ethoxy]ethoxy]acetyl]-[Arg14,Arg17,Pro21,Pro27]-h-amylin (peptide)
peptide: K([AEEA-γGlu-C20 diacid])CNTATCATQRLARFLRHSSPNFGAIPSSTNVGSNTY-NH2
modifications: disulfide 2-7; N-terminus assumed
SMILES: CC[C@H](C)[C@H](NC(=O)[C@H](C)NC(=O)CNC(=O)[C@H](Cc1ccccc1)NC(=O)[C@H](CC(N)=O)NC(=O)[C@@H]1CCCN1C(=O)[C@H](CO)NC(=O)[C@H](CO)NC(=O)[C@H](Cc1c[nH]cn1)NC(=O)[C@H](CCCNC(=N)N)NC(=O)[C@H](CC(C)C)NC(=O)[C@H](Cc1ccccc1)NC(=O)[C@H](CCCNC(=N)N)NC(=O)[C@H](C)NC(=O)[C@H](CC(C)C)NC(=O)[C@H](CCCNC(=N)N)NC(=O)[C@H](CCC(N)=O)NC(=O)[C@@H](NC(=O)[C@H](C)NC(=O)[C@@H]1CSSC[C@H](NC(=O)[C@@H](N)CCCCNC(=O)COCCOCCNC(=O)CC[C@H](NC(=O)CCCCCCCCCCCCCCCCCCC(=O)O)C(=O)O)C(=O)N[C@@H](CC(N)=O)C(=O)N[C@@H]([C@@H](C)O)C(=O)N[C@@H](C)C(=O)N[C@@H]([C@@H](C)O)C(=O)N1)[C@@H](C)O)C(=O)N1CCC[C@H]1C(=O)N[C@@H](CO)C(=O)N[C@@H](CO)C(=O)N[C@H](C(=O)N[C@@H](CC(N)=O)C(=O)N[C@H](C(=O)NCC(=O)N[C@@H](CO)C(=O)N[C@@H](CC(N)=O)C(=O)N[C@H](C(=O)N[C@@H](Cc1ccc(O)cc1)C(N)=O)[C@@H](C)O)C(C)C)[C@@H](C)O
notes: also called compound 82
B2: N^ε1-[2-[2-[2-[[(4S)-4-carboxy-4-(19-carboxynonadecanoylamino)butanoyl]amino]ethoxy]ethoxy]acetyl]-[Arg17,Pro21,Pro27,Arg34]-h-amylin (peptide)
peptide: K([AEEA-γGlu-C20 diacid])CNTATCATQRLANFLRHSSPNFGAIPSSTNVGRNTY-NH2
modifications: disulfide 2-7; N-terminus assumed
SMILES: CC[C@H](C)[C@H](NC(=O)[C@H](C)NC(=O)CNC(=O)[C@H](Cc1ccccc1)NC(=O)[C@H](CC(N)=O)NC(=O)[C@@H]1CCCN1C(=O)[C@H](CO)NC(=O)[C@H](CO)NC(=O)[C@H](Cc1c[nH]cn1)NC(=O)[C@H](CCCNC(=N)N)NC(=O)[C@H](CC(C)C)NC(=O)[C@H](Cc1ccccc1)NC(=O)[C@H](CC(N)=O)NC(=O)[C@H](C)NC(=O)[C@H](CC(C)C)NC(=O)[C@H](CCCNC(=N)N)NC(=O)[C@H](CCC(N)=O)NC(=O)[C@@H](NC(=O)[C@H](C)NC(=O)[C@@H]1CSSC[C@H](NC(=O)[C@@H](N)CCCCNC(=O)COCCOCCNC(=O)CC[C@H](NC(=O)CCCCCCCCCCCCCCCCCCC(=O)O)C(=O)O)C(=O)N[C@@H](CC(N)=O)C(=O)N[C@@H]([C@@H](C)O)C(=O)N[C@@H](C)C(=O)N[C@@H]([C@@H](C)O)C(=O)N1)[C@@H](C)O)C(=O)N1CCC[C@H]1C(=O)N[C@@H](CO)C(=O)N[C@@H](CO)C(=O)N[C@H](C(=O)N[C@@H](CC(N)=O)C(=O)N[C@H](C(=O)NCC(=O)N[C@@H](CCCNC(=N)N)C(=O)N[C@@H](CC(N)=O)C(=O)N[C@H](C(=O)N[C@@H](Cc1ccc(O)cc1)C(N)=O)[C@@H](C)O)C(C)C)[C@@H](C)O
notes: also called compound 78
B3: N^ε1-[2-[2-[2-[[(4S)-4-carboxy-4-(19-carboxynonadecanoylamino)butanoyl]amino]ethoxy]ethoxy]acetyl]-[Gly14,Arg17,Pro21,Pro27,Pro31]-h-amylin (peptide)
peptide: K([AEEA-γGlu-C20 diacid])CNTATCATQRLAGFLRHSSPNFGAIPSSTPVGSNTY-NH2
modifications: disulfide 2-7; N-terminus assumed
SMILES: CC[C@H](C)[C@H](NC(=O)[C@H](C)NC(=O)CNC(=O)[C@H](Cc1ccccc1)NC(=O)[C@H](CC(N)=O)NC(=O)[C@@H]1CCCN1C(=O)[C@H](CO)NC(=O)[C@H](CO)NC(=O)[C@H](Cc1c[nH]cn1)NC(=O)[C@H](CCCNC(=N)N)NC(=O)[C@H](CC(C)C)NC(=O)[C@H](Cc1ccccc1)NC(=O)CNC(=O)[C@H](C)NC(=O)[C@H](CC(C)C)NC(=O)[C@H](CCCNC(=N)N)NC(=O)[C@H](CCC(N)=O)NC(=O)[C@@H](NC(=O)[C@H](C)NC(=O)[C@@H]1CSSC[C@H](NC(=O)[C@@H](N)CCCCNC(=O)COCCOCCNC(=O)CC[C@H](NC(=O)CCCCCCCCCCCCCCCCCCC(=O)O)C(=O)O)C(=O)N[C@@H](CC(N)=O)C(=O)N[C@@H]([C@@H](C)O)C(=O)N[C@@H](C)C(=O)N[C@@H]([C@@H](C)O)C(=O)N1)[C@@H](C)O)C(=O)N1CCC[C@H]1C(=O)N[C@@H](CO)C(=O)N[C@@H](CO)C(=O)N[C@H](C(=O)N1CCC[C@H]1C(=O)N[C@H](C(=O)NCC(=O)N[C@@H](CO)C(=O)N[C@@H](CC(N)=O)C(=O)N[C@H](C(=O)N[C@@H](Cc1ccc(O)cc1)C(N)=O)[C@@H](C)O)C(C)C)[C@@H](C)O
notes: also called compound 71
B4: N^ε1-[2-[2-[2-[[(4S)-4-carboxy-4-(19-carboxynonadecanoylamino)butanoyl]amino]ethoxy]ethoxy]acetyl]-[His14,Arg17,Pro21,Pro27,Arg34]-h-amylin (peptide)
peptide: K([AEEA-γGlu-C20 diacid])CNTATCATQRLAHFLRHSSPNFGAIPSSTNVGRNTY-NH2
modifications: disulfide 2-7; N-terminus assumed
SMILES: CC[C@H](C)[C@H](NC(=O)[C@H](C)NC(=O)CNC(=O)[C@H](Cc1ccccc1)NC(=O)[C@H](CC(N)=O)NC(=O)[C@@H]1CCCN1C(=O)[C@H](CO)NC(=O)[C@H](CO)NC(=O)[C@H](Cc1c[nH]cn1)NC(=O)[C@H](CCCNC(=N)N)NC(=O)[C@H](CC(C)C)NC(=O)[C@H](Cc1ccccc1)NC(=O)[C@H](Cc1c[nH]cn1)NC(=O)[C@H](C)NC(=O)[C@H](CC(C)C)NC(=O)[C@H](CCCNC(=N)N)NC(=O)[C@H](CCC(N)=O)NC(=O)[C@@H](NC(=O)[C@H](C)NC(=O)[C@@H]1CSSC[C@H](NC(=O)[C@@H](N)CCCCNC(=O)COCCOCCNC(=O)CC[C@H](NC(=O)CCCCCCCCCCCCCCCCCCC(=O)O)C(=O)O)C(=O)N[C@@H](CC(N)=O)C(=O)N[C@@H]([C@@H](C)O)C(=O)N[C@@H](C)C(=O)N[C@@H]([C@@H](C)O)C(=O)N1)[C@@H](C)O)C(=O)N1CCC[C@H]1C(=O)N[C@@H](CO)C(=O)N[C@@H](CO)C(=O)N[C@H](C(=O)N[C@@H](CC(N)=O)C(=O)N[C@H](C(=O)NCC(=O)N[C@@H](CCCNC(=N)N)C(=O)N[C@@H](CC(N)=O)C(=O)N[C@H](C(=O)N[C@@H](Cc1ccc(O)cc1)C(N)=O)[C@@H](C)O)C(C)C)[C@@H](C)O
notes: also called compound 84

These binders were tested against T1, human calcitonin receptor (assay: ratio of hCTR IC50 to hAmylin-R IC50 (reference: human amylin receptor)).
Procedure: The resulting pellet was resuspended, homogenized and centrifuged (20.000 rpm, 15 min) in a buffer containing 20 mM Na-HEPES and 0.1 mM EDTA (pH 7.4, buffer 2). The resulting pellet was resuspended in buffer 2 and protein concentration was measured (BCA protein Assay, Pierce). The homogenate was kept cold during the whole procedure. The membranes were kept at −80° C. until use. The assay was performed in a 384 well Optiplate (PerkinElmer) in a total volume of 40 ul. Membranes were mixed with SPA beads. Final concentration of membranes 35 ng/μL final and SPA beads was 0.05 mg/well. Test-compounds were dissolved in DMSO and further diluted in assay buffer (50 mM Hepes, pH 7.4, 1 mM CaCl2, 5 mM MgCl₂, 0.1% OA and 0.02% Tween20). […] The final mixture was incubated with shaking at 400 rpm for 120 min at 25° C. prior to centrifugation (1500 rpm, 10 min). Samples were analyzed on TopCounter™ (Packard). The IC₅₀ was calculated using (one site binding competition analysis) GraphPad Prism5 as a measure of receptor affinity.
Membranes were prepared in the following way; the cells were rinsed with PBS and incubated with Versene for approximately 5 min before harvesting. The cells were flushed with PBS and the cell-suspension was centrifuged for 5 min at 1000 rpm. Cells were homogenized (Ultrathurrax) in a buffer containing 20 mM Na-HEPES and 10 mM EDTA (pH 7.4) and centrifuged at 20.000 rpm for 15 min. The resulting pellet was resuspended, homogenized and centrifuged (20.000 rpm, 15 min) in a buffer containing 20 mM Na-HEPES and 0.1 mM EDTA (pH 7.4, buffer 2). The resulting pellet was resuspended in buffer 2 and protein concentration was measured (BCA protein Assay, Pierce). The homogenate was kept cold during the whole procedure. The membranes were kept at −80° C. until use. Assay was performed in a 384 well Optiplate (PerkinElmer) in a total volume of 40 ul. Membranes were mixed with SPA beads.

Question: With B1 as the binder, how does the “Ratio hCT/hAmylin binding” value read?
Answer: 140

Question: How did the “Ratio hCT/hAmylin binding” value turn out when B2 was run?
Answer: 60.7

Question: Which “Ratio hCT/hAmylin binding” value does the source give for B3 here?
Answer: 32

Question: B4 was tested. Which “Ratio hCT/hAmylin binding” value did it give?
Answer: 120

Each binder was assayed against T1, human calcitonin receptor (assay: SPA competition on BHK cell membranes, 125I-calcitonin as radioligand (Assay VII)).
Procedure: Membranes were prepared in the following way; the cells were rinsed with PBS and incubated with Versene for approximately 5 min before harvesting. The cells were flushed with PBS and the cell-suspension was centrifuged for 5 min at 1000 rpm. Cells were homogenized (Ultrathurrax) in a buffer containing 20 mM Na-HEPES and 10 mM EDTA (pH 7.4) and centrifuged at 20.000 rpm for 15 min. The resulting pellet was resuspended, homogenized and centrifuged (20.000 rpm, 15 min) in a buffer containing 20 mM Na-HEPES and 0.1 mM EDTA (pH 7.4, buffer 2). The resulting pellet was resuspended in buffer 2 and protein concentration was measured (BCA protein Assay, Pierce). The homogenate was kept cold during the whole procedure. The membranes were kept at −80° C. until use. Assay was performed in a 384 well Optiplate (PerkinElmer) in a total volume of 40 ul. Membranes were mixed with SPA beads. Final concentration of membranes 35 ng/μL final and Final concentration of SPA beads was 0.05 mg/well. Test-compounds were dissolved in DMSO and further diluted in assay buffer (50 mM Hepes, pH 7.4, 1 mM CaCl2, 5 mM MgCl₂, 0.1% OA and 0.02% Tween20). […] The final mixture was incubated for 120 min with shaking at 400 rpm at 25° C. prior to centrifugation (1500 rpm, 10 min). Samples were analyzed on TopCounter™ (Packard). The […] was calculated using (one site binding competition analysis) GraphPad Prism5 as a measure of receptor affinity.

Question: How did the IC50 turn out when B1 was run?
Answer: 88.8 nM

Question: For B2, which IC50 is on record?
Answer: 36.5 nM

Question: With B3 as the binder, how does the IC50 read?
Answer: 1.53 nM

Question: How did the IC50 turn out when B4 was run?
Answer: 88.9 nM
